Assay results from patent publication US20260250318A1, “COMPOSITIONS AND METHODS FOR CROSSING THE BLOOD BRAIN BARRIER” (VOYAGER THERAPEUTICS, INC., priority 2022, published 2026).
Positions count from the first letter of the chain named. Read-outs that look alike come from different tables or passages of the source.

B1: TTM-001: AAV9 capsid variant comprising SPHSKA (SEQ ID NO: 941) in loop IV (protein)
chain 1: MAADGYLPDWLEDNLSEGIREWWALKPGAPQPKANQQHQDNARGLVLPGYKYLGPGNGLDKGEPVNAADAAALEHDKAYDQQLKAGDNPYLKYNHADAEFQERLKEDTSFGGNLGRAVFQAKKRLLEPLGLVEEAAKTAPGKKRPVEQSPQEPDSSAGIGKSGAQPAKKRLNFGQTGDTESVPDPQPIGEPPAAPSGVGSLTMASGGGAPVADNNEGADGVGSSSGNWHCDSQWLGDRVITTSTRTWALPTYNNHLYKQISNSTSGGSSNDNAYFGYSTPWGYFDFNRFHCHFSPRDWQRLINNNWGFRPKRLNFKLFNIQVKEVTDNNGVKTIANNLTSTVQVFTDSDYQLPYVLGSAHEGCLPPFPADVFMIPQYGYLTLNDGSQAVGRSSFYCLEYFPSQMLRTGNNFQFSYEFENVPFHSSYAHSQSLDRLMNPLIDQYLYYLSKTINGSGSPHSKAQNQQTLKFSVAGPSNMAVQGRNYIPGPSYRQQRVSTTVTQNNNSEFAWPGASSWALNGRNSLMNPGPAMASHKEGEDRFFPLSGSLIFGKQGTGRDNVDADKVMITNEEEIKTTNPVATESYGQVATNHQSAQAQAQTGWVQNQGILPGMVWQDRDVYLQGPIWAKIPHTDGNFHPSPLMGGFGMKHPPPQILIKNTPVPADPPTAFNKDKLNSFITQYSTGQVSVEIEWELQKENSKRWNPEIQYTSNYYKSNNVEFAVNTEGVYSEPRPIGTRYLTRNL
chain 2: GSGSPHSKAQNQQT
B2: TTM-002: AAV9 capsid variant comprising HDSPHK (SEQ ID NO: 2) in loop IV (protein)
chain 1: B1 chain 1 with S454H, G455D, S459K, K460S, A461G
chain 2: GHDSPHKSGQNQQT

Key:
ALPL on HeLa cells = target: T1, ALPL on HeLa cells (Homo sapiens, UniProt P05186); assay: Transduction of HeLa cells after blocking with an anti-ALPL antibody; format: cell-based; details: for Transduction in Hela cells as measured by luciferase assay (RLU): 1E4 VG/cell
T1 construct: knockdown endogenous levels of ALPL in HeLa cells; endogenous in cells; host or cells: HeLa
T1 sequence (P05186 18-501): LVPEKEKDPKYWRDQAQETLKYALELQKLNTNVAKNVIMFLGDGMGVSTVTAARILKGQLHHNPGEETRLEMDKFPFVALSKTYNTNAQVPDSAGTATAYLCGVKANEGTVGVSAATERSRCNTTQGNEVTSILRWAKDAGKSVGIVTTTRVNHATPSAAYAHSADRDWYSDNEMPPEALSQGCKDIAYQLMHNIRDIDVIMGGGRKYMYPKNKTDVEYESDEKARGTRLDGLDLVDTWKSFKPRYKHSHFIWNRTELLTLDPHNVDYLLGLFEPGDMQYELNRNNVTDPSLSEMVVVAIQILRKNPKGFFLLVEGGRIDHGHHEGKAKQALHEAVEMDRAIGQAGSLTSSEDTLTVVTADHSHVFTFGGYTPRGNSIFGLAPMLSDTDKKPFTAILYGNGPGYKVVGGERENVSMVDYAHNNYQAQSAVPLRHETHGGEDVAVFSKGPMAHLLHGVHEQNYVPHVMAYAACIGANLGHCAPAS
Procedure: Following incubation, the cells were transduced with 1E4 VG/cell of AAV particles comprising the TTM-002 capsid variant or an AAV9 control expressing a GFP-luciferase payload. After a 4 hour incubation period the AAV and media were removed and replaced with fresh media and luciferase activity was measured (RLU) 24 hours post transduction.

brain [1] = assay: NGS fold enrichment of synthetic library (passage 3) in BALB/c mice, first cross-species screen; format: in vivo; details: synthetic library passage 3, intravenous, RNA NGS, brain of BALB/c mice, relative to wild-type AAV9
Summary of the method: (§1)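 Passage-3 synthetic capsid library given intravenously […] to NHPs (2-4 years) and BALB/c or C57Bl/6 mice (n=3, 6-8 weeks). After e.g. 28 days, tissue RNA was RT-PCR amplified and NGS-sequenced; values are fold enrichment of each variant relative to wild-type AAV9.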

brain [2] = assay: NGS fold enrichment of synthetic library (passage 3) in C57Bl/6 mice, first cross-species screen; format: in vivo; details: synthetic library passage 3, intravenous, RNA NGS, brain of C57Bl/6 mice, relative to wild-type AAV9
Summary of the method: as §1

[3] = tested on: HEK 293T cells transfected with pCMV6 negative control; format: cell-based; details: for Luciferase Activity (fold change relative to pCMV6 transfected cells): pCMV6 transfected cells (negative control, reference); for Luciferase Activity (RLU): Table 30, pCMV6 transfected cells
Procedure: Briefly, a transduction assay was performed in that HEK 293T cells were transfected via calcium phosphate transfection with a plasmid expressing ALPL, an AAVR positive control, or a pCMV6 negative control (250 ng or 500 ng of plasmid). AAVR is a universal AAV entry factor involved in AAV transduction. […] At 24-hours post-transduction, GFP expression and luciferase activity were measured to quantify and observe AAV cellular transduction. […] The TTM-002, TTM-006, TTM-018, and TTM-019 capsid variants all comprised the SPH motif immediately subsequent to position 455, numbered relative to SEQ ID NO: 138 and a positive residue in one of the next three residues subsequent to the SPH motif.
Three isoforms of ALPL exist, isoform 1 (Alkaline phosphatase, placental-like 2 (ALPPL2), NM_031313, which is incorporated by reference herein), isoform 2 (alkaline phosphatase, placental (ALPP), NM_001632, which is incorporated by reference herein), and isoform 3 (alkaline phosphatase, intestinal (ALPLI), NM_001631, which is incorporated by reference herein), that can also be expressed on cell surfaces via a GPI-anchor. […] The transduction assay described above was repeated with the three isoforms. HEK 293T cells were transfected via calcium phosphate transfection with a plasmid expressing ALPL, isoform 1 of ALPL, isoform 2 of ALPL, isoform 3 of ALPL, an AAVR positive control, or a pCMV6 negative control. At 24 hours post-transfection, the HEK 293T cells expressing the ALPL receptor were transduced with an AAV particle comprising the TTM-001 capsid variant or the TTM-002 capsid variant, expressing a Luc2-GFP payload. At 24-hours post-transduction, luciferase activity (RLU) was measured to quantify AAV cellular transduction.
To determine if deletion of the endoplasmic reticulum (ER) localization signal of ALPL affected transduction of the TTM-001 and TTM-002 capsid variants, HEK 293T cells were transfected via calcium phosphate transfection with a plasmid expressing ALPL, ALP with a deletion of the ER localization signal (ALPL transcript variant 2 that lacks the ER signal (NM_001127501, which is incorporated by reference herein)), or a pCMV6 negative control. At 24 hours post-transfection, the HEK 293T cells expressing the ALPL receptor were transduced with an AAV particle comprising the TTM-001 capsid variant, the TTM-002 capsid variant, or an AAV9 capsid control, expressing a GFP payload. At 24-hours post-transduction, luciferase activity (RLU) was measured to quantify AAV cellular transduction. Data was normalized to fold change in luciferase activity (RLU) compared to the pCMV6 control.
To determine if the TTM-001 and TTM-002 capsid variants could bind to both the human ALPL protein (NM_000478.6, which is incorporated by reference herein) and the mouse ALPL ortholog (NM_001287172.1, which is incorporated by reference herein), HEK 293T cells were transfected via calcium phosphate transfection with a plasmid expressing human ALPL, the murine ortholog of ALPL, or a pCMV6 negative control. At 24 hours post-transfection, the HEK 293T cells expressing the ALPL receptor were transduced with an AAV particle comprising the TTM-001 capsid variant, the TTM-002 capsid variant, or an AAV9 control capsid protein, expressing a Luc2-GFP payload. At 24-hours post-transduction, luciferase activity (RLU) was measured to quantify AAV cellular transduction.
AAV entry factor involved in AAV transduction), or a pCMV6 negative control.

[4] = IgG isotype control 3.125 μg/mL
[5] = Table 33, Cells transfected with pCMV6 (reference)
[6] = Table 34, Cells transfected with pCMV6 (reference)

Molecule	Transduction in Hela cells as measured by luciferase assay (RLU) (ALPL on HeLa cells; Anti-ALPL antibody 0 μg/mL)	Transduction in Hela cells as measured by luciferase assay (RLU) (ALPL on HeLa cells; Anti-ALPL antibody 3.125 μg/mL)	Transduction in Hela cells as measured by luciferase assay (RLU) (ALPL on HeLa cells; Anti-ALPL antibody 6.25 μg/mL)	Transduction in Hela cells as measured by luciferase assay (RLU) (ALPL on HeLa cells; Anti-ALPL antibody 12.5 μg/mL)	Transduction in Hela cells as measured by luciferase assay (RLU) (ALPL on HeLa cells; IgG isotype control 0 μg/mL)	Transduction in Hela cells as measured by luciferase assay (RLU) (ALPL on HeLa cells; [4])	Transduction in Hela cells as measured by luciferase assay (RLU) (ALPL on HeLa cells; IgG isotype control 6.25 μg/mL)	Transduction in Hela cells as measured by luciferase assay (RLU) (ALPL on HeLa cells; IgG isotype control 12.5 μg/mL)	Fold enrichment over AAV9 in the brain of Mice (BALB/c) (brain [1]) [fold]	Fold enrichment over AAV9 in the brain of Mice (C57Bl/6) (brain [2]) [fold]	Luciferase Activity (fold change relative to pCMV6 transfected cells) ([3]; Table 27) [fold]	Luciferase Activity (RLU) [3]	Fold change in luciferase activity relative to the pCMV6 control cells [3, 5] [fold]	Fold change in luciferase activity relative to the pCMV6 control cells [3, 6] [fold]	transduction in the presence of anti-ALPL antibody vs isotype control (ALPL on HeLa cells; HeLa, 0-12.5 μg/mL antibody)	Luciferase Activity (fold change relative to pCMV6 transfected cells) ([3]; Table 28) [fold]	Fold change in luciferase activity relative to the pCMV6 control cells ([3]; Table 35, Receptor pCMV6 (reference)) [fold]
AAV9: wild-type AAV9 control capsid [reference compound]	530.67	527.33	451.67	417.33	433.33	457.67	516.33	551.33	–	–	–	–	–	–	–	–	–
B1	–	–	–	–	–	–	–	–	41.304	25.293	1	5,212 RLU	1	1	–	–	–
B2	4701	5042.67	5220	5556.67	4113.33	527.33	186.67	136	49.760	63.993	1	2,894 RLU	1	1	decreased TTM-002 transduction in a dose dependent manner	1	1.0
